Data as given in patent publication US20260070949A1 (NOVOZYMES A S, published 2026).

T1: active deamidase from Chryseobacterium sp-62563 (Chryseobacterium sp-62563)
T1 construct: Protein-glutamine glutaminase (EC 3.5.1.44), called 'active deamidase'
T1 chain: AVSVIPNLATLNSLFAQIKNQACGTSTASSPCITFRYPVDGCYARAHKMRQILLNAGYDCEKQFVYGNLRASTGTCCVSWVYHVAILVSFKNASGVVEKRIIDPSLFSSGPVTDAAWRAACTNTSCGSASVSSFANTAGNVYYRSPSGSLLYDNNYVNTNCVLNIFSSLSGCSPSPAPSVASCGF

T2: deamidase inhibitor from Chryseobacterium sp-62563
T2 chain: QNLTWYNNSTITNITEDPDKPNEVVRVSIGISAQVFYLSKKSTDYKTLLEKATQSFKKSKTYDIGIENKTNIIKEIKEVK


What was measured:
[1] = biological target: T1, active deamidase from Chryseobacterium …; test: nanoDSF at 330 nm, Tm of the deamidase/inhibitor complex; active deamidase alone (SEQ ID NO: 4) gave 66.3° C.
Experimental: 60 μL sample was transferred in replicates to a black-bottomed 384 well plate, and the plate was briefly centrifugated to remove potential air bubbles.
The thermal unfolding temperature of the samples was analyzed using a Prometheus NT.Plex system from NanoTemper Technologies GmbH, with the following settings: [0305] (i) Temperature scan rate: 3.3° C. per minute; and [0306] (ii) Temperature scan interval: 20-95° C.
Using the nanoDSF procedure, as described in Example 2, the thermal unfolding temperature of an active deamidase and the corresponding deamidase/inhibitor complex was measured.

[2] = biological target: T2, deamidase inhibitor from …

Binder	NanoDSF thermal unfolding temperature [1] [° C.]	deamidase activity (% initial rate), fluorescence substrate FITC-PP-Dnp with glutamyl endopeptidase [2]
deamidase inhibitor from Chryseobacterium sp-62563 (other) QNLTWYNNSTITNITEDPDKPNEVVRVSIGISAQVFYLSKKSTDYKTLLEKATQSFKKSKTYDIGIENKTNIIKEIKEVK	70.1	–
active deamidase from Chryseobacterium sp-62563 (protein) AVSVIPNLATLNSLFAQIKNQACGTSTASSPCITFRYPVDGCYARAHKMRQILLNAGYDCEKQFVYGNLRASTGTCCVSWVYHVAILVSFKNASGVVEKRIIDPSLFSSGPVTDAAWRAACTNTSCGSASVSSFANTAGNVYYRSPSGSLLYDNNYVNTNCVLNIFSSLSGCSPSPAPSVASCGF	–	the deamidase activity (% initial rate) was significantly reduced
